Values belong to the binder of their own block, whether it stands above or below them. Non-standard residues stand in square brackets, D forms with d. No end group written: not given here.
Columns and labels:
[1] = target: T1, tau R3 domain 304-336 (Homo sapiens, UniProt P10636); assay: SPR
T1 chain: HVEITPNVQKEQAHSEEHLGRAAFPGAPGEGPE

[2] = target: T2, full-length tau 441 (Homo sapiens, UniProt P10636); assay: SPR
[3] = target: T2, full-length tau 441; assay: MST

T2 sequence (P10636 2-758): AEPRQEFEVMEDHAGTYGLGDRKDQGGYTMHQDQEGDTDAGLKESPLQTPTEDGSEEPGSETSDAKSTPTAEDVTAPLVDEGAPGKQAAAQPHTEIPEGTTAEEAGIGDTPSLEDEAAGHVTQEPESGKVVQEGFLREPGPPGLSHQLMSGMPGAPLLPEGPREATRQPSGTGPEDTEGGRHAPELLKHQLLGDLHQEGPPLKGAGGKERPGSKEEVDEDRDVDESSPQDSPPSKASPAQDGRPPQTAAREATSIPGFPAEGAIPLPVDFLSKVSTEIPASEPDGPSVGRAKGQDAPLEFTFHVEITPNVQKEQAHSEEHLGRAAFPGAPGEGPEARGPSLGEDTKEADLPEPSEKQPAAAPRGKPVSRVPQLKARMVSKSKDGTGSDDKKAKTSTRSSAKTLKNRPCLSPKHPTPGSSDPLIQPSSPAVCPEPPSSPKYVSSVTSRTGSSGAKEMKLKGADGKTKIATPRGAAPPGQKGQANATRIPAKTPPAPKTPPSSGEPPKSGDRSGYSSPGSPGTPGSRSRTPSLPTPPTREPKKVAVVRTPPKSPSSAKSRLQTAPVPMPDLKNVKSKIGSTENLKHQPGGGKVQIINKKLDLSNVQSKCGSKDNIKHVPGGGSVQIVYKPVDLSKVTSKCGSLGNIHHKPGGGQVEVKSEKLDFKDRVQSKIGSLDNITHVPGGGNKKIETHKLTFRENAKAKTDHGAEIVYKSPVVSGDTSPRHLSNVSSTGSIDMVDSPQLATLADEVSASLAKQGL

Kd [1]: 0.007 nM
Kd [2]: 6.1 nM
B1: TF2D-5a (peptide)
chain: [dD]GG[dY][dQ][dI][dL][dF][dK][dI][dP]GG[dH][dI][dH][dR][dR][dR][dR][dR]-NH2
modifications: N-terminus assumed
SMILES: CC[C@@H](C)[C@@H](NC(=O)[C@@H](Cc1c[nH]cn1)NC(=O)CNC(=O)CNC(=O)[C@H]1CCCN1C(=O)[C@H](NC(=O)[C@@H](CCCCN)NC(=O)[C@@H](Cc1ccccc1)NC(=O)[C@@H](CC(C)C)NC(=O)[C@H](NC(=O)[C@@H](CCC(N)=O)NC(=O)[C@@H](Cc1ccc(O)cc1)NC(=O)CNC(=O)CNC(=O)[C@H](N)CC(=O)O)[C@H](C)CC)[C@H](C)CC)C(=O)N[C@H](Cc1c[nH]cn1)C(=O)N[C@H](CCCNC(=N)N)C(=O)N[C@H](CCCNC(=N)N)C(=O)N[C@H](CCCNC(=N)N)C(=O)N[C@H](CCCNC(=N)N)C(=O)N[C@H](CCCNC(=N)N)C(N)=O

Kd [2]: 1.3 nM
B2: TF2D-5 (peptide)
chain: [dD]GG[dY][dQ][dI][dL][dF][dK][dI][dP]GG[dH][dI][dH]-NH2
modifications: N-terminus assumed
SMILES: CC[C@@H](C)[C@@H](NC(=O)[C@@H](Cc1c[nH]cn1)NC(=O)CNC(=O)CNC(=O)[C@H]1CCCN1C(=O)[C@H](NC(=O)[C@@H](CCCCN)NC(=O)[C@@H](Cc1ccccc1)NC(=O)[C@@H](CC(C)C)NC(=O)[C@H](NC(=O)[C@@H](CCC(N)=O)NC(=O)[C@@H](Cc1ccc(O)cc1)NC(=O)CNC(=O)CNC(=O)[C@H](N)CC(=O)O)[C@H](C)CC)[C@H](C)CC)C(=O)N[C@H](Cc1c[nH]cn1)C(N)=O

Kd [3]: 11.7 nM
B3: TF2D-5a (peptide)
chain: [dD]GG[dY][dQ][dI][dL][dF][dK][dI][dP]GG[dH][dI][dH][dR][dR][dR][dR][dR]-NH2
modifications: also: CF633 label, position not given here

Kd [3]: 0.308 nM
B4: TF2D-5 (peptide)
chain: [dD]GG[dY][dQ][dI][dL][dF][dK][dI][dP]GG[dH][dI][dH]-NH2
modifications: also: CF633 label, position not given here

Reference: article PMC9917023 (2023)
